Source: publication PMC5118228 (EJNMMI Research, 2016)

Tested on: tumor and normal organs of mice
Experiment: Radiation dosimetry (MIRD schema, Olinda/EXM spherical S-factors)
Type: in vivo
Conditions: tumor-bearing mice, calculated
Protocol: Saturation of receptor-specific tumor uptake was investigated by determining the kinetics of the tumor uptake with increasing injected mass of peptide. The time-activity curves for the tumor and normal organs were fitted by single-exponential functions using Prism-5 (GraphPad). Goodness of fit was analyzed with the Pearson correlation coefficient R ^2 > 0.8. Both F test and the Aikake information criterion were used to decide on the complexity of the curves.
Dosimetry was performed according to the MIRD schema by using the spherical nodes S-factors from the Olinda/EXM software. S-factors were interpolated from the actual weight of the organs and tissue. All organs and tissue were assumed to be spherical with a density of […]. Mean radiation absorbed doses were obtained as a function-injected mass of peptide, assuming a homogeneous distribution in the tumor and organs. […] Owing to the short path length of α-particles, only the self-dose within each organ was included. The threshold for lethality was determined with renal absorbed dose and injected activity as indicators. Logistic regression analysis was used to determine the LD50 for presumed renal toxicity-related death.

## C[C@@H](O)[C@H](NC(=O)[C@@H]1CSSC[C@H](NC(=O)[C@@H](Cc2ccccc2)NC(=O)CN2CCN(CC(=O)O)CCN(CC(=O)O)CCN(CC(=O)O)CC2)C(=O)N[C@@H](Cc2ccc(O)cc2)C(=O)N[C@H](Cc2c[nH]c3ccccc23)C(=O)N[C@@H](CCCCN)C(=O)N[C@@H]([C@@H](C)O)C(=O)N1)C(=O)O [^213Bi-DOTATATE, metal not drawn]
With L-lysine (35 mg)
  Radiation absorbed dose per administered activity, Stomach, ^213Bi α: 9.00E-04 Gy/MBq
  Radiation absorbed dose per administered activity, Stomach, ^213Bi β: 2.60E-03 Gy/MBq
  Radiation absorbed dose per administered activity, Stomach, ^213Po α: 6.00E-02 Gy/MBq
  Radiation absorbed dose per administered activity, Tumor, Total α: 6.14E-01 Gy/MBq
  Radiation absorbed dose per administered activity, Tumor, Total β: 4.40E-02 Gy/MBq
  Radiation absorbed dose per administered activity, Tumor, ^209Pb β: 1.41E-02 Gy/MBq
  Radiation absorbed dose per administered activity, Tumor, ^209Tl β + γ: 8.60E-04 Gy/MBq
  Radiation absorbed dose per administered activity, Tumor, ^213Bi α: 9.20E-03 Gy/MBq
  Radiation absorbed dose per administered activity, Tumor, ^213Bi β: 2.87E-02 Gy/MBq
  Radiation absorbed dose per administered activity, Tumor, ^213Po α: 6.05E-01 Gy/MBq
Without L-lysine
  Radiation absorbed dose per administered activity, Adrenals, Total α: 3.60E-02 Gy/MBq
  Radiation absorbed dose per administered activity, Adrenals, Total β: 2.00E-03 Gy/MBq
  Radiation absorbed dose per administered activity, Adrenals, ^209Pb β: 2.00E-04 Gy/MBq
  Radiation absorbed dose per administered activity, Adrenals, ^209Tl β + γ: 2.00E-05 Gy/MBq
  Radiation absorbed dose per administered activity, Adrenals, ^213Bi α: 5.00E-04 Gy/MBq
  Radiation absorbed dose per administered activity, Adrenals, ^213Bi β: 1.50E-03 Gy/MBq
  Radiation absorbed dose per administered activity, Adrenals, ^213Po α: 3.56E-02 Gy/MBq
  Radiation absorbed dose per administered activity, Blood, Total α: 9.00E-02 Gy/MBq
  Radiation absorbed dose per administered activity, Blood, Total β: 5.00E-03 Gy/MBq
  Radiation absorbed dose per administered activity, Blood, ^209Pb β: 1.60E-04 Gy/MBq
  Radiation absorbed dose per administered activity, Blood, ^209Tl β + γ: 1.20E-04 Gy/MBq
  Radiation absorbed dose per administered activity, Blood, ^213Bi α: 1.30E-03 Gy/MBq
  Radiation absorbed dose per administered activity, Blood, ^213Bi β: 4.30E-03 Gy/MBq
  Radiation absorbed dose per administered activity, Blood, ^213Po α: 8.80E-02 Gy/MBq
  Radiation absorbed dose per administered activity, Femur, Total α: 3.20E-02 Gy/MBq
  Radiation absorbed dose per administered activity, Femur, Total β: 1.00E-03 Gy/MBq
  Radiation absorbed dose per administered activity, Femur, ^209Pb β: 1.00E-04 Gy/MBq
  Radiation absorbed dose per administered activity, Femur, ^209Tl β + γ: 3.00E-05 Gy/MBq
  Radiation absorbed dose per administered activity, Femur, ^213Bi α: 5.00E-04 Gy/MBq
  Radiation absorbed dose per administered activity, Femur, ^213Bi β: 1.30E-03 Gy/MBq
  Radiation absorbed dose per administered activity, Femur, ^213Po α: 3.16E-02 Gy/MBq
  Radiation absorbed dose per administered activity, Kidney, Total α: 1.07E+00 Gy/MBq
  Radiation absorbed dose per administered activity, Kidney, Total β: 5.50E-02 Gy/MBq
  Radiation absorbed dose per administered activity, Kidney, ^209Pb β: 6.20E-03 Gy/MBq
  Radiation absorbed dose per administered activity, Kidney, ^209Tl β + γ: 1.30E-03 Gy/MBq
  Radiation absorbed dose per administered activity, Kidney, ^213Bi α: 1.61E-02 Gy/MBq
  Radiation absorbed dose per administered activity, Kidney, ^213Bi β: 4.71E-02 Gy/MBq
  Radiation absorbed dose per administered activity, Pancreas, Total α: 1.34E-01 Gy/MBq
  Radiation absorbed dose per administered activity, Pancreas, Total β: 5.00E-03 Gy/MBq
  Radiation absorbed dose per administered activity, Pancreas, ^209Pb β: 7.00E-04 Gy/MBq
  Radiation absorbed dose per administered activity, Pancreas, ^209Tl β + γ: 1.00E-04 Gy/MBq
  Radiation absorbed dose per administered activity, Pancreas, ^213Bi α: 2.00E-03 Gy/MBq
  Radiation absorbed dose per administered activity, Pancreas, ^213Bi β: 4.50E-03 Gy/MBq
  Radiation absorbed dose per administered activity, Pancreas, ^213Po α: 1.32E-01 Gy/MBq
  Radiation absorbed dose per administered activity, Stomach, Total α: 9.00E-02 Gy/MBq
  Radiation absorbed dose per administered activity, Stomach, Total β: 5.00E-03 Gy/MBq
  Radiation absorbed dose per administered activity, Stomach, ^209Pb β: 5.90E-04 Gy/MBq
  Radiation absorbed dose per administered activity, Stomach, ^209Tl β + γ: 1.10E-04 Gy/MBq
  Radiation absorbed dose per administered activity, Stomach, ^213Bi α: 1.30E-03 Gy/MBq
  Radiation absorbed dose per administered activity, Stomach, ^213Bi β: 3.90E-03 Gy/MBq
  Radiation absorbed dose per administered activity, Stomach, ^213Po α: 8.84E-02 Gy/MBq
  Radiation absorbed dose per administered activity, Tumor, Total α: 6.61E-01 Gy/MBq
  Radiation absorbed dose per administered activity, Tumor, Total β: 4.80E-02 Gy/MBq
  Radiation absorbed dose per administered activity, Tumor, ^209Pb β: 1.58E-02 Gy/MBq
  Radiation absorbed dose per administered activity, Tumor, ^209Tl β + γ: 9.60E-04 Gy/MBq
  Radiation absorbed dose per administered activity, Tumor, ^213Bi α: 9.90E-03 Gy/MBq
  Radiation absorbed dose per administered activity, Tumor, ^213Bi β: 3.14E-02 Gy/MBq
  Radiation absorbed dose per administered activity, Tumor, ^213Po α: 6.51E-01 Gy/MBq
